Results on 13 molecules are retold here after patent publication US20090060916A1 (published 2009).

Changes are numbered by the printed parent chain. “And” between values parts separate entries of the source, which are not always exact repeats. Equal values may be shown once.

The target of assay [1] is T1, cynomolgous IL-13 (cynomolgous, UniProt Q0PW92 19-132, The Biacore assay used biotinylated cIL-13 according to our card. The biotin cannot be carried in the letters.).
T1 construct: also called cIL-13; cynomolgus IL-13
T1 sequence (Q0PW92 entry or part of it limits assumed, form in doubt): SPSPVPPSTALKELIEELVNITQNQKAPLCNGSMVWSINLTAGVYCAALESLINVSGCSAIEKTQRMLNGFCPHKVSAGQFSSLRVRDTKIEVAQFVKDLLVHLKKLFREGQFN
In words: Biacore SPR, biotinylated cynomolgous IL-13 on SA chip. The protocol: (§1) 50 to 100 ul of the diluted supernatant was injected (kininject) at 50 ul/min flow rate, followed by a 5 minute dissociation phase. Association and dissociation off-rates and constants were calculated using BIAevaluation software v4.1 (Biacore).
Background: Surface plasmon resonance follows binding to a sensor surface in real time, without labels.

The target of assay [2] is T2, human IL-13 (human, UniProt P35225 35-146, biotinylated on the Biacore chip).
T2 construct: also called hIL-13; recombinant human IL-13
T2 sequence (P35225 35-146 limits assumed): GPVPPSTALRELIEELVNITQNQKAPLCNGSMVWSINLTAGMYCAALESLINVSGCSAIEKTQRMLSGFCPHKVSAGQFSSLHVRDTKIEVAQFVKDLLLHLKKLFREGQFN
In words: Biacore SPR, biotinylated human IL-13 on SA chip. On the procedure:
as §1

Assay [3] deals with T1, cynomolgous IL-13. Nature of the assay: cell-based or functional assay.
The target in assay [4] is T2, human IL-13. In words: cell-based or functional assay.
The target in assay [5] is T3, human IL-4 (human, UniProt P05112 25-153, biotinylated in the receptor binding assay and on the Biacore chip).
T3 construct: also called interleukin-4; biotinylated IL-4
T3 sequence (looked up): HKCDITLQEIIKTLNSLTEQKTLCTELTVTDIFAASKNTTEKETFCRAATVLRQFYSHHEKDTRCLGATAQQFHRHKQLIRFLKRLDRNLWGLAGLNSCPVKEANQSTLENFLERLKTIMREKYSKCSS
In words: DOM9 RBA (IL-4 RBA). An excerpt:
(§2) The wells were washed three times with 0.1% (v/v) Tween 20 in PBS, followed by three washes with PBS, before blocking with 2% (w/v) BSA in PBS. […] The reaction was stopped by the addition of HCl and the absorbance read at 450 nm.

Assay [6] concerns the target T4, rhesus IL-4 (rhesus, UniProt P51492 25-153).
T4 sequence (looked up): T3 sequence (looked up) with K2N, D4H, T6A, Q8R, K12E, E26K, V29I, F33L, N111D
Nature of the assay: inferred from TF-1 proliferation with rhesus IL-4. On the procedure: (§3) The mixture was incubated for 72 hours at 37° C. 5% CO₂. […] 96® reagent (colorometric reagent for determining viability, Promega, Madison, USA) was then added and the number of cells per well was quantified by measuring the absorbance at 490 nm.
(§4) A dose-response of the dAb will determine the ND50 in this set up.

Assay [7] has as its target T3, human IL-4. In words: DOM9 RBA (IL-4 RBA). The source holds these as a separate data set.
The target of assay [8] is T5, cynomolgous IL-4 (cynomolgous, UniProt P79339 25-153).
T5 construct: also called Cyno IL-4
T5 sequence: T3 sequence (looked up) with E26K, V29I, F33L
Nature of the assay: inferred from TF-1 proliferation with cynomolgous IL-4. The protocol: as §3, §4

Assay [9] addresses T3, human IL-4. In words: IL-4 RBA: ELISA, IL-4R/Fc coated, biotinylated IL-4.
From the text: as §2
On the technique in general: An ELISA detects its analyte on a solid surface through an enzyme-linked reagent.

Assay [10] has as its target T3, human IL-4. Nature of the assay: screening of the affinity maturation output; IL-4 RBA and cell assay.
The target in assay [11] is T3, human IL-4. Nature of the assay: Biacore SPR, biotinylated IL-4 on SA chip, co-inject. The protocol: Analytes were passed over the antigen-coated flow-cell, with in-line referencing against a blank flow-cell, at a flow rate of 30 μl/min in HBS-EP running buffer (Biacore). The first dAb was injected, followed immediately by injection of the second dAb using the Biacore's co-inject function.

For assay [12], the target named is T3, human IL-4. Nature of the assay: IL-4 RBA: ELISA, IL-4R/Fc coated, biotinylated IL-4.
From the text: as §2
The source holds these as a separate data set.

Assay [13] deals with T2, human IL-13. In words: IL-13 receptor binding assay (receptor chain not stated).
In assay [14] the target is T3, human IL-4. Nature of the assay: cell-based or functional assay.
For assay [15], the target named is T3, human IL-4. In words: cell-based or functional assay. The source holds these as a separate data set.
The target in assay [16] is T2, human IL-13. In words: IL-13 receptor binding assay by the legend; IL-13 sandwich ELISA by paragraph 465.
In assay [17] the target is T2, human IL-13. In words: cell-based or functional assay. The source holds these as a separate data set.
Assay [18] deals with variant IL-13 (R130Q) (human), P35225. Nature of the assay: cell-based or functional assay.
Sequence of variant IL-13 (R130Q) (human), P35225 (P35225 35-146, stated change not applied): as the sequence (P35225 35-146 limits assumed) above
Assay [19] addresses T2, human IL-13. Nature of the assay: IL-13 receptor alpha2 RBA, competition. The protocol: (§5) The plate was incubated for seven hours before being read in the 8200 cellular detection system (Applied Biosystems).
Assay [20] deals with T2, human IL-13. In words: IL-13 receptor alpha2 RBA, competition. On the procedure: as §5
The source holds these as a separate data set.

Assay [21] addresses T2, human IL-13. In words: IL-13 sandwich ELISA, competition with coating antibody. On the procedure:
A MAXISORP™ plate (high protein binding ELISA plate, Nunc, Denmark) was coated overnight with 2.5 μg/ml coating antibody (Module Set, Bender MedSystems, Vienna, Austria), then washed once with 0.05% (v/v) Tween 20 in PBS before blocking with 0.5% (w/v) BSA 0.05% (v/v) Tween 20 in PBS. […] The plate was then incubated with TMB substrate (KPL, Gaithersburg, USA), and the reaction was stopped by the addition of HCl and the absorbance read at 450 nm.

Assay [22] has as its target T2, human IL-13. In words: cell-based or functional assay. The source holds these as a separate data set.
Assay [23] addresses T2, human IL-13. In words: assay not named ('Potency IC50').
Assay [24] deals with T2, human IL-13. Nature of the assay: IL-13 RBA.

B1: DOM10-275-78 (other)
VH: EVQLLESGGGLVQPGGSLRLSCVASGFTFDVAEMDWVRQAPGKGLEWVSTISPSRRGTYYADSVKGRFTISRDNSKNTLYLQMNSLRAEDTAVYYCAKAYTGRSLWGPGTLVTVSS
notes: VH dAb
On to B1, for which the dissociation constant Kd (as a rule, the concentration at which binding is half-saturated) was 0.32 to 0.75 nM in assay [1] and 0.072 to 0.1 nM in assay [2]. In addition, the “EC50, HEK293 STAT6 SEAP reporter assay, cIL-13” value in assay [3] was determined as 1.4 nM. The “EC50, HEK293 STAT6 SEAP reporter assay, hIL-13” value in [4] was 2.5 nM.

B2: DOM9-155-78 (other)
VL: DIQMTQSPSSLSASVGDRVTITCRASRHIGDWLHWYQQKPGKAPKLLIAWASTLDSGVPSRFSGSGSGTDFTLTISSLQPEDFATYYCLQEGWGPPTFGQGTKVEIKR
notes: Vk dAb
In the case of B2, the IC50 (as a rule, the concentration that gives 50% inhibition) amounted to 0.41 nM in [5] and 0.456 nM in assay [7]. Further, the binding result in assay [6] is on record as “binds”.

B3: DOM9-155-25 (other)
VL: B2 VL with H28P, G30S
notes: Vk dAb
As for B3, the binding result in [6] and in assay [8] was “binds” each time. Moreover, the IC50 in [9] was 0.73 nM and 1 nM.

B4: DOM9-155-77 (other)
VL: B2 VL with G30S, A49P, T53G, D55W
notes: Vk dAb
As to B4, the binding result in assay [6] and in [10] was “binds” throughout.

B5: DOM9-155-1 (other)
VL: B2 VL with R27L, H28D, A49G, A51G, T53G, D55Q
notes: Vk dAb
As to B5, the binding result in assay [11] is “binds”.

B6: DOM9-112-210 (other)
VH: EVQLLESGGGLVQPGGSLRLSCAASGFTFRNFGMGWVRQAPGKGLEWVSWIISSGTETYYADSVKGRFTISRDNSKNTLYLQMNSLRAEDTAVYYCAKSLGRFDYWGQGTLVTVSS
notes: VH dAb
On to B6, for which the IC50 in [7] is 0.391 nM; in [9], 0.144 nM.

B7: PEGylated DOM9-112 (AST) DOM10-53-343 (bispecific antibody)
chain: EVQLLESGGGLVQPGGSLRLSCAASGFTFRNYGMAWVRQAPGKGLEWVSWIDASGTETYYADSVKGRFTISRDNSKNTLYLQMNSLRAEDTAVYYCAKSLGRFDYWGQGTLVTVSSASTEVQLLESGGGLVQPGGSLRLSCAASGFIFAWYDMGWARQAPGKGLEWVSSIDWHGEVTYYADSVKGRFTISRDNSKNTLYLQMNSLRAEDTAVYYCATAEDEPGYDYWGQGTLVTVSSC
modifications: 40K PEG2-MAL on the C-terminal cysteine
notes: in-line fusion of two VH dAbs made in Pichia pastoris; also called dual specific ligand
Consider B7, for which the IC50 in assay [12] stood at 13 nM; in assay [13], 0.31 nM.

B8: DOM9-44-502 (other)
VL: DIQMTQSPSSLSASVGDRVTITCRASQNINFWLRWYQQKPGKAPTLLIYDASRSQSGVPSRFSGSGSGTDFTLTISSLQPEDFATYYCQQDLMPPYTFGQGTKVEIKR
notes: Vk dAb
For the molecule B8, the “average inhibition of HDM induced PBMC proliferation, 100 nM dAb, responding donors” value in [14] was determined as 38%. Moreover, the IC50 in assay [12] is 4 nM; in assay [9], 5.5 nM and 8.6 nM and 4.1 nM and 3.6 nM. Besides, the “ND50, IL-4 induced TF-1 cell proliferation” value in assay [15] amounted to 4.5 nM.

B9: DOM9-112 (ASTKGPS) DOM10-53-344 (bispecific antibody)
chain: EVQLLESGGGLVQPGGSLRLSCAASGFTFRNYGMAWVRQAPGKGLEWVSWIDASGTETYYADSVKGRFTISRDNSKNTLYLQMNSLRAEDTAVYYCAKSLGRFDYWGQGTLVTVSSASTKGPSGVQLLESGGGLVQPGGSLRLSCAASGFIFAWYDMGWVRQAPGKGLEWVSSIDWHGEVTYYADSVKGRFTISRDNSKNTLYLQMNSLRAEDTAVYYCATAEDEPGYDYWGQGTLVTVSS
notes: in-line fusion of two VH dAbs; also called dual specific ligand
Take B9: the concentration for half-maximal inhibition (IC50) in assay [12] was about 1 nM; in assay [16] it was 0.12 nM.

B10: DOM10-53-316 (other)
VH: GVQLLESGGGLVQPGGSLRLSCAASGFIFAWYDMGWARQAPGKGLEWVSSIDWHGEVTYYADSVKGRFTISRDNSKNTLYLQMNSLRAEDTAVYYCATAEDEPGYDYWGQGTLVTVSS
notes: VH dAb
On to B10, for which the “IC50, TF-1 proliferation with human IL-13” value in assay [17] was found to be 0.39 nM. In [18], this molecule registered an IC50, TF-1 proliferation with variant IL-13 (R130Q) of 0.52 nM. Moreover, the half-maximal inhibitory concentration (IC50) in [19] was 1.2 nM; in assay [20], 2 nM.

B11: DOM10-53-474 (other)
VH: B10 VH with I28T, A37V
notes: VH dAb
Turning to B11, the dissociation constant (Kd) in assay [1] was found to be 2 nM; in assay [2] it was 0.028 nM. In assay [21], the concentration giving a half-maximal response (EC50) – broadly, the concentration at which the effect is half-maximal – is 0.023 nM. In addition, in assay [3], the “EC50, HEK293 STAT6 SEAP reporter assay, cIL-13” value came to 11.1 nM. In addition, the “EC50, HEK293 STAT6 SEAP reporter assay, hIL-13” value in assay [4] stood at 0.63 nM.

B12: DOM10-53-344 (other)
VH: B10 VH with A37V
notes: VH dAb
For B12, in [22], the “ND50, IL-13 induced TF-1 cell proliferation” value amounted to 100 nM. Also, the concentration for half-maximal inhibition (IC50) worked out at 0.1 nM in assay [23] and 0.04 nM in [16].

B13: DOM10-176-535 (other)
VL: DIQMTQSPSSLSASVGDRVTITCRASQWIGPYLNWYQQKPGKAPKPLIYMGYWAPSGVPSRFSGSGSGTDFTLTISSLQPEDFATYYCQQDLYPPFTFGQGTKVEIKR
notes: Vk dAb
As to B13, the results for the IC50 in assay [24], in assay [19] and in assay [21] were about 0.5 nM, 7.9 nM and 1 nM, respectively. The “IC50, TF-1 proliferation with human IL-13” value in [17] was determined as 6 nM. Further, the “ND50, IL-13 induced TF-1 cell proliferation” value in [22] worked out at 0.77 nM. In addition, the IC50, TF-1 proliferation with variant IL-13 (R130Q) in [18] was 7.8 nM.
